{
  "source": "paper PMC7695694",
  "about": "“Yeast Nup84-Nup133 complex structure details flexibility and reveals conservation of the membrane anchoring ALPS motif” (Nature Communications, 2020)",
  "binders": {"B1": {"name": "VHH-SAN4 (VHH)", "VHH": "QLQLVESGGGSVQAGGSLTLSCTASESISKRIHGIGWFRQRRGEQREEIAYITTGGRPNLGDSVKDRFTISRDKSNGTVYLQMNSLKPEDTAVYYCHGRGRWWGTEGRLDYWGQGTQVTVSS", "notes": "structure with this nanobody deposited as PDB 6X05; also called nanobody VHH-SAN4; source: E. coli LOBSTR-RIL(DE3), purified (Ni Sepharose, tag cut with bdSENP1, Superdex 75); not shown: 14xHis, N-terminal, cleaved; bdSUMO, N-terminal, cleaved"}, "B2": {"name": "VHH-SAN5 (VHH)", "VHH": "QVQLVESGGGLVQAGGSLRLSCAASGSIGSLDAMAWYRRAPGKQRERVASISRYGTYYVDSVKGRFTISRDNAKNTVYLQMNSLKPEDTGVYYCKGVMEVGGVIDEYWGQGTQVTVSS", "notes": "structure with this nanobody deposited as PDB 6X04; also called nanobody VHH-SAN5; source: E. coli LOBSTR-RIL(DE3), purified (Ni Sepharose, tag cut with bdSENP1, Superdex 75); not shown: 14xHis, N-terminal, cleaved; bdSUMO, N-terminal, cleaved"}, "B3": {"name": "VHH-SAN8 (VHH)", "VHH": "QLQLVETGGGLVQAGGSLRLSCVASGRTFTSYAMGWFRQAPGKEREFVAAISRLASGTDYADSVKGRFTISRNNDKNTVYLQMNNLIPEDTAVYYCAALQALRFSLPIAMATMKNGRADSWGQGTQVTVSS", "notes": "structures with this nanobody deposited as PDB 6X02 and 6X03 (modelled as a generic nanobody without CDRs); Selected by phage display from an alpaca immunised with the full-length Y complex, panned against Nup84; also called VHH8; nanobody VHH-SAN8; source: E. coli LOBSTR-RIL(DE3), purified (Ni Sepharose, tag cut with bdSENP1, Superdex 75); not shown: 14xHis, N-terminal, cleaved; bdSUMO, …"}, "B4": {"name": "VHH-SAN9 (VHH)", "VHH": "QVQLVESGGGSVQAGGSLRLSCAVSGGTLSTLAMGWFRQAPGQEREFVARIGWTNGDTGYADSVKGRFTISRDNVKNTVYLQMNNLKPEDTALYYCATRRPYGSTLYPPNTESAHDNWGQGTQVTVSS", "notes": "structure with this nanobody deposited as PDB 6X03 (modelled as a generic nanobody without CDRs); also called VHH9; nanobody VHH-SAN9; source: E. coli LOBSTR-RIL(DE3), purified (Ni Sepharose, tag cut with bdSENP1, Superdex 75); not shown: 14xHis, N-terminal, cleaved; bdSUMO, N-terminal, cleaved"}},
  "details_in_all_cases": "both partners purified",
  "key": {"[1]": {"target": "T1, Nup133 N-terminal domain (Nup133NTD, residues 55-481, S. cerevisiae) (S. cerevisiae, UniProt P36161)", "T1 construct": "Nup133, S. cerevisiae, N-terminal beta-propeller domain, residues 55-481; The 6xHis tag is 3C cleavable; also called scNup133NTD; WT-Nup133NTD; source: E. coli LOBSTR-RIL(DE3), purified (Ni Sepharose, Superdex 75)", "T1 sequence (P36161 55-481)": "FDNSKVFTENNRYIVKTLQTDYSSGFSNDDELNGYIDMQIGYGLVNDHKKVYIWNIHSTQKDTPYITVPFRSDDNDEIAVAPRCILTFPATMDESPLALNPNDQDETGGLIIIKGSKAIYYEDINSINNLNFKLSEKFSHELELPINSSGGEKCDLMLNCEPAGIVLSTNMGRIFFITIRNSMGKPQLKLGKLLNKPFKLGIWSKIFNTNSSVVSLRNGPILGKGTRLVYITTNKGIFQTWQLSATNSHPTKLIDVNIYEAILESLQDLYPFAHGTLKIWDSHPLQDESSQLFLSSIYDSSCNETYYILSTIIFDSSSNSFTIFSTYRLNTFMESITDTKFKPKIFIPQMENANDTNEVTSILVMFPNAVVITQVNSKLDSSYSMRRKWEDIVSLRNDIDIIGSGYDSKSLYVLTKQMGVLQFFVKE", "test": "crystal structure; Nup133NTD-VHH-SAN4, 2.1 Å, molecular replacement; crystals at 18 °C, PEG 3,350, ammonium sulfate, Bis-Tris/HCl pH 5.5"}, "[2]": {"target": "T1, Nup133 N-terminal domain (Nup133NTD, …)", "test": "crystal structure; Nup133NTD-VHH-SAN5, molecular replacement; six copies in the asymmetric unit; crystals at 18 °C, PEG MME 2,000, potassium chloride, Tris/HCl pH 8.0"}, "[3]": {"target": "T2, Nup84 (full-length, S. cerevisiae) (S. cerevisiae, UniProt P52891)", "T2 construct": "Nup84, S. cerevisiae, full length; The N-terminal 10xHis-8xArg-SUMO tag is 3C cleavable; also called scNup84", "T2 sequence (P52891 whole entry)": "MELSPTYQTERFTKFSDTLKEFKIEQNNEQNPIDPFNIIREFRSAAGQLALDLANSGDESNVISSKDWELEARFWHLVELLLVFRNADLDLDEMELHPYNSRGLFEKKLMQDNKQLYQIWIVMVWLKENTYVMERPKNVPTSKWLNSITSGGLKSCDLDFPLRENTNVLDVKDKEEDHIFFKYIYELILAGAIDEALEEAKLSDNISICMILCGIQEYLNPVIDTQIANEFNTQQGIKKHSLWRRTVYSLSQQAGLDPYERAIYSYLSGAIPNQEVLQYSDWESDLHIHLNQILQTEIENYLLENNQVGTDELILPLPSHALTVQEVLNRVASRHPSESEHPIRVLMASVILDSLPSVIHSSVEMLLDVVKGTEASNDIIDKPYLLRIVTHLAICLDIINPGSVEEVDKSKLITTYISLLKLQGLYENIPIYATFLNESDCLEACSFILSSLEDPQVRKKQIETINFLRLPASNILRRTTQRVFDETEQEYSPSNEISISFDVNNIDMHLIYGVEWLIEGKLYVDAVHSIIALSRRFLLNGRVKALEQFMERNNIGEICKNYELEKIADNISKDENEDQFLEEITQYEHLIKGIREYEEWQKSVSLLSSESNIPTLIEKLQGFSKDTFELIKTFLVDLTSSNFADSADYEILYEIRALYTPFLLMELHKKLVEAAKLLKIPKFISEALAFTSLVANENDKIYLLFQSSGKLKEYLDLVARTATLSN", "test": "crystal structure; Nup84-Nup133CTD-VHH-SAN8, 6.4 Å, SAD with a [TeW6O24]6- derivative; crystals at 18 °C, PEG 8,000, ethylene glycol, imidazole/MES pH 6.5"}, "[4]": {"target": "T3, Nup84-Nup133CTD heterodimeric complex (S. cerevisiae) (Saccharomyces cerevisiae (strain ATCC …, UniProt P52891;P36161))", "T3 construct": "Nup84, S. cerevisiae, full length; source: E. coli LOBSTR-RIL(DE3), co-expressed from a bicistronic vector, purified (Ni Sepharose, SP Sepharose, Superdex 200)", "T3 sequence (P52891 whole entry, chain 1 of 2)": "as the sequence (P52891 whole entry) above", "T3 sequence (P36161 521-1157, chain 2 of 2)": "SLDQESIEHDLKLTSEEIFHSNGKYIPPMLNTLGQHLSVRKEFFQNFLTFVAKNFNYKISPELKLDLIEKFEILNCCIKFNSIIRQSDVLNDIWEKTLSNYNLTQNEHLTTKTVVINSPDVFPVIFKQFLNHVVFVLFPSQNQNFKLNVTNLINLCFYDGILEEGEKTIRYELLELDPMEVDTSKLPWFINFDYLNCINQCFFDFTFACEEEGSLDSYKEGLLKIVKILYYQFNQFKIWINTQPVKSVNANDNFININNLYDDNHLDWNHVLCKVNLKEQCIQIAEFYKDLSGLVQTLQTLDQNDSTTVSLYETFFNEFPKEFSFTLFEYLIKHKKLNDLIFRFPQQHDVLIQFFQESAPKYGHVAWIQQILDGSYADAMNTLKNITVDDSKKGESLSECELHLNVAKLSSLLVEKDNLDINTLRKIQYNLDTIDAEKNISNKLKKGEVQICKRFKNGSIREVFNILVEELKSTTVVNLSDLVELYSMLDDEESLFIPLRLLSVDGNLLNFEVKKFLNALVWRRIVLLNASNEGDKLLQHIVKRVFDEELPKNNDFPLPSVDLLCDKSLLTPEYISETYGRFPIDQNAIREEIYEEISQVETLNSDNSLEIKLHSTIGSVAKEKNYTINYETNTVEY", "test": "crystal structure; Nup84-Nup133CTD-VHH-SAN8, 6.4 Å, SAD with a [TeW6O24]6- derivative; crystals at 18 °C, PEG 8,000, ethylene glycol, imidazole/MES pH 6.5"}, "[5]": {"target": "T2, Nup84 (full-length, S. cerevisiae)", "test": "crystal structure; Nup84-Nup133CTD with VHH-SAN8 and VHH-SAN9, 7.4 Å; crystallised under the same conditions and in the same crystal form as the VHH-SAN8 complex"}, "[6]": {"target": "T3, Nup84-Nup133CTD heterodimeric complex …", "test": "crystal structure; Nup84-Nup133CTD with VHH-SAN8 and VHH-SAN9, 7.4 Å; crystallised under the same conditions and in the same crystal form as the VHH-SAN8 complex"}},
  "data": [
    {"binder": "B1", "values": [
      {"measurement": "binding result", "setting": "[1]", "result": "binds"}
    ]},
    {"binder": "B2", "values": [
      {"measurement": "binding result", "setting": "[2]", "result": "binds"}
    ]},
    {"binder": "B3", "values": [
      {"measurement": "binding result", "setting": "[3]", "result": "binds"},
      {"measurement": "binding result", "setting": "[4]", "result": "binds"}
    ]},
    {"binder": "B4", "values": [
      {"measurement": "binding result", "setting": "[5]", "result": "binds"},
      {"measurement": "binding result", "setting": "[6]", "result": "binds"}
    ]}
  ]
}
